This is an account of results in the RNAGym collection of RNA variant scans (doi:10.7554/elife.80360).

B1: CPEB3 Ribozyme (parent)
chain: GGGGGCCACAGCAGAAGCGUUCACGUCGCGGCCCCUGUCAGAUUCUGGUGAAUCUGCGAAUUCUGCUGU

In this data set the parent is B1. Nature of the data set: self-cleavage, relative activity (ratio to wild type); higher = more cleavage; co-transcriptional.
As for GGGGGCCCCAGCAGAAGCGUUCACGUCGCGGCCCCUGUCAGAUUCUGGUGAAUCGGCGAAUUCUGCUGU [A8C U55G], the self-cleavage worked out at 0.851.

For the variant GGGGGCCGCAGCAGUAGCGUUCACGUCGCGGCCCCUGUCAGAUUCUGGUGAAUCUGCGAAUUCUGCUGU [A8G A15U], the self-cleavage worked out at 0.144.

As for GGGGGCCGCAGCAGCAGCGUUCACGUCGCGGCCCCUGUCAGAUUCUGGUGAAUCUGCGAAUUCUGCUGU [A8G A15C], the self-cleavage turned out to be 0.0691.

Consider GGGGGCCCCAGCAGAAGCGUUCACGUCGCGGCCCCUGUCAGAUUCUGGUGAAUCUGCGAAUGCUGCUGU [A8C U62G], for which the self-cleavage stood at 0.9.

In the case of GGGGGCCCCAGCAGAAGCGUUCACGUCGCGGCCCCUGUCAGAUUCUGGUGAAUCUGCGAAUACUGCUGU [A8C U62A], the self-cleavage was determined as 0.898.

On to GGGGGCCCCAGCAGAAGCGUUCACGUCGCGGCCCCUGUCAGAUUCUGGUGAAUCUGCGAAUCCUGCUGU [A8C U62C], for which the self-cleavage is 0.841.

As to GGGGGCCGCAGCAGAAGCGUUCACGUCGCGGCCCCUGUCAGAUUCUGGUGAAUCUGCGAAUUCUGCUGU [A8G], the self-cleavage amounted to 0.929.

GGGGGCCCCAGCAGAAGCGUUCACGUCGCGGCCCCUGUCAGAUUCUGGUGAAUCUGCGAAUUCGGCUGU [A8C U64G]: the self-cleavage came to 0.892.

On to GGGGGCCCCAGCAGAAGCGUUCACGUCGCGGCCCCUGUCAGAUUCUGGUGAAUCUGCGAAUUCCGCUGU [A8C U64C], for which the self-cleavage is 0.86.

On to GGGGGCCGCAGCAGAAGCGUUCACGUCGCGGCCCCUGUCAGAUUCUGGUGAAUCUGCGAGUUCUGCUGU [A8G A60G], for which the self-cleavage stood at 0.393.

In the case of GGGGGCCGCAGCAGAAGCGUUCACGUCGCGGCCCCUGUCAGAUUCUGGUGAAUCUGCGAUUUCUGCUGU [A8G A60U], the self-cleavage came out at 0.25.

For the variant GGGGGCCGCAGCAGAUGCGUUCACGUCGCGGCCCCUGUCAGAUUCUGGUGAAUCUGCGAAUUCUGCUGU [A8G A16U], the self-cleavage turned out to be 0.457.

Regarding GGGGGCCGCAGCAGAAGCGUUCACGUCGCGGACCCUGUCAGAUUCUGGUGAAUCUGCGAAUUCUGCUGU [A8G C32A], the self-cleavage stood at 0.701.

In the case of GGGGGCCGCAGCAGAAGCGUUUACGUCGCGGCCCCUGUCAGAUUCUGGUGAAUCUGCGAAUUCUGCUGU [A8G C22U], the self-cleavage stood at 0.074.

Regarding GGGGGCCGCAGCAGAAGCGUUGACGUCGCGGCCCCUGUCAGAUUCUGGUGAAUCUGCGAAUUCUGCUGU [A8G C22G], the self-cleavage was determined as 0.0752.

For GGGGGCCGCAGCAGAAGCGUUAACGUCGCGGCCCCUGUCAGAUUCUGGUGAAUCUGCGAAUUCUGCUGU [A8G C22A], the self-cleavage is 0.136.

With GGGGGCCGCAGCAGAAGCGUUCACGUCGCGGCCCCUGUCAGAUUAUGGUGAAUCUGCGAAUUCUGCUGU [A8G C45A], the self-cleavage came to 0.8.

Consider GGGGGCCCCAGCAGAAGCGUUCACGUCGCGGCCCCGGUCAGAUUCUGGUGAAUCUGCGAAUUCUGCUGU [A8C U36G], for which the self-cleavage turned out to be 0.192.

For the variant GGGGGCCCCAGCAGAAGCGUUCACGUCGCGGCCCCCGUCAGAUUCUGGUGAAUCUGCGAAUUCUGCUGU [A8C U36C], the self-cleavage was determined as 0.819.

For GGGGGCCCCAGCAGAAGCGUUCACGUCGCGGCCCCAGUCAGAUUCUGGUGAAUCUGCGAAUUCUGCUGU [A8C U36A], the self-cleavage amounted to 0.205.

As to GGGGGCCGCAGCAGAAGCGUUCACGUUGCGGCCCCUGUCAGAUUCUGGUGAAUCUGCGAAUUCUGCUGU [A8G C27U], the self-cleavage amounted to 0.0734.

Consider GGGGGCCGCAGCAGAAGCGUUCACGUAGCGGCCCCUGUCAGAUUCUGGUGAAUCUGCGAAUUCUGCUGU [A8G C27A], for which the self-cleavage worked out at 0.0861.

GGGGGCCGCAGCUGAAGCGUUCACGUCGCGGCCCCUGUCAGAUUCUGGUGAAUCUGCGAAUUCUGCUGU [A8G A13U]: the self-cleavage turned out to be 0.0712.

For GGGGGCCGCAGCAGAAGCGUUCACGUCGGGGCCCCUGUCAGAUUCUGGUGAAUCUGCGAAUUCUGCUGU [A8G C29G], the self-cleavage is 0.496.

As to GGGGGCCGCAGCAGAAGCGUUCACGUCGUGGCCCCUGUCAGAUUCUGGUGAAUCUGCGAAUUCUGCUGU [A8G C29U], the self-cleavage was determined as 0.761.

On to GGGGGCCGCAGCAGAAGCGUUCACGUCGAGGCCCCUGUCAGAUUCUGGUGAAUCUGCGAAUUCUGCUGU [A8G C29A], for which the self-cleavage was found to be 0.647.

For GGGGGCCCCAGCAGAAGCGUUCACGUCGCGGCCCCUGUCAGAUUCUGGUGAAUCUGCGAAGUCUGCUGU [A8C U61G], the self-cleavage worked out at 0.937.

Consider GGGGGCCCCAGCAGAAGCGUUCACGUCGCGGCCCCUGUCAGAUUCUGGUGAAUCUGCGAACUCUGCUGU [A8C U61C], for which the self-cleavage worked out at 0.776.

On to GGGGGCCGCUGCAGAAGCGUUCACGUCGCGGCCCCUGUCAGAUUCUGGUGAAUCUGCGAAUUCUGCUGU [A8G A10U], for which the self-cleavage turned out to be 0.69.

Take GGGGGCCCCAGCAGAAGCGUUCACGUCGCGGCCCCUGUCAGAUUCAGGUGAAUCUGCGAAUUCUGCUGU [A8C U46A]: the self-cleavage is 0.981.

As to GGGGGCCCCAGCAGAAGCGUUCACGUCGCGGCCCCUGUCAGAUUCCGGUGAAUCUGCGAAUUCUGCUGU [A8C U46C], the self-cleavage was determined as 0.979.

For GGGGGCCGCAGCAGAAGCGUUCACGUCGCGGCCCAUGUCAGAUUCUGGUGAAUCUGCGAAUUCUGCUGU [A8G C35A], the self-cleavage stood at 0.217.

As for GGGGGCCGCAGCAGAAGCGUUCACGUCGCGGCCCGUGUCAGAUUCUGGUGAAUCUGCGAAUUCUGCUGU [A8G C35G], the self-cleavage came out at 0.341.

For GGGGGCCCCAGCAGAAGCGUUCACGUCGCGGCCCCUGUCAGAUUCUGGUGAAUCUGCGAAUUCUGCUGA [A8C U69A], the self-cleavage stood at 1.01.

In the case of GGGGGCCCCAGCAGAAGCGUUCACGUCGCGGCCCCUGUCAGAUUCUGGUGAAUCUGCGAAUUCUGCUGG [A8C U69G], the self-cleavage came out at 1.04.

Consider GGGGGCCGCAGGAGAAGCGUUCACGUCGCGGCCCCUGUCAGAUUCUGGUGAAUCUGCGAAUUCUGCUGU [A8G C12G], for which the self-cleavage is 0.133.

GGGGGCCGCAGUAGAAGCGUUCACGUCGCGGCCCCUGUCAGAUUCUGGUGAAUCUGCGAAUUCUGCUGU [A8G C12U]: the self-cleavage amounted to 0.444.

As to GGGGGCCGCAGAAGAAGCGUUCACGUCGCGGCCCCUGUCAGAUUCUGGUGAAUCUGCGAAUUCUGCUGU [A8G C12A], the self-cleavage was determined as 0.175.

Regarding GGGGGCCCCAGCAGAAGCGUCCACGUCGCGGCCCCUGUCAGAUUCUGGUGAAUCUGCGAAUUCUGCUGU [A8C U21C], the self-cleavage is 0.854.
